For 39 variants, self-cleavage results are on record in the RNAGym collection of RNA variant scans (doi:10.7554/elife.90254).

B1: LINE1-full (parent)
chain: UACGUAGGUGGUUUUCCCCUGAUAGUGCUAAGGGGGCCUGGAAGUUUGGACUGGGCAGAGCUCAACACAGCGUGGCAAAGUGGCUGUGGCUAGACUGCCUCUCUGGAUUCCUCGUCACUCAGCAGGGCAUCUCUGAGAGAAAUGCC

This data set covers variants of B1. The data set is described as follows: self-cleavage, relative activity (ratio to wild type); higher = more cleavage; in vitro, sequencing; the parent is a self-cleaving ribozyme.
For the variant UACGUAGGUGGUUUUCCCCUGAUAGUGCUAAGGGGGCCUGGAAGUUUGGACUGGGCAGAGCUCAACACAGCGUGGCAAAGUGGCUGUGGCAAGACUGCCUCUCUGGAUUCCUCGUCACUCAGCAGGGCAUCUCUGAGAGAAGUGCC, the self-cleavage was determined as 0.63.
In the case of UACGUAGGUGGUUUUCCCCUGAUAGUGCUAAGGGGGCCUGGAAGUUUGGACUGGGCAGAGCUCAACACAGCGUGGCAAAGUGGCUGUGGGUAGACUGCCUCUCUGGAUUCCUCGUCACUCAGCAGGGCAUCUCUGAGAGAAGUGCC, the self-cleavage came out at 0.05.
With UACGUAGGUGGUUUUCCCCUGAUAGUGCUAAGGGGGCCUGGAAGUUUGGACUGGGCAGAGCUCAACACAGCGUGGCAAAGUGGCUGUGGCAAGACUGCCUCUCUGGAUUCCUCGUCUCUCAGCAGGGCAUCUCUGAGAGAAAUGCC the figure was 0.6; with UACGUAGGUGGUUUUCCCCUGAUAGUGCUAAGGGGGCCUGGAAGUUUGGACUGGGCAGAGCUCAACACAGCGUGGCAAAGUGGCUGUGGCAAGACAGCCUCUCUGGAUUCCUCGUCACUCAGCAGGGCAUCUCUGAGAGAAAUGCC, 0.04; with UACGUAGGUGGUUUUCCCCUGAUAGUGCUAAGGGGGCCUGGAAGUUUGGACUGGGCAGAGCUCAACACAGCGUGGCAAAGUGGCUGUGGUUAGACUGCCUCUCUGGAUUCCUCGUCACUCAGCAGGGCAUCUCUGAGAGAAAUGCC, 0.03.
UACGUAGGUGGUUUUCCCCUGAUAGUGCUAAGGGGGCCUGGAAGUUUGGACUGGGCAGAGCUCAACACAGCGUGGCAAAGUGGCUGUGGGUAGACUGCCUCUCUGGAUUCCUCGUCACUCAGCAGGGCAUCUCUGAGAGAAAUGCC: the self-cleavage was 0.03.
UACGUAGGUGGUUUUCCCCUGAUAGUGCUAAGGGGGCCUGGAAGUUUGGACUGGGCAGAGCUCAACACAGCGUGGCAAAGUGGCUGUGGAUAGACUGCCUCUCUGGAUUCCUCGUCACUCAGCAGGGCAUCUCUGAGAGAAAUGCC: the self-cleavage is 0.04.
UACGUAGGUGGUUUUCCCCUGAUAGUGCUAAGGGGGCCUGGAAGUUUGGACUGGGCAGAGCUCAACACAGCGUGGCAAAGUGGCUGUGGAUAGACUGCCUCUCUGGAUUCCUCGUCACUCAGCAGGGCAUCUCUGAGAGAGAUGCC: the self-cleavage came to 0.03.
On to UACGUAGGUGGUUUUCCCCUGAUAGUGCUAAGGGGGCCUGGAAGUUUGGACUGGGCAGAGCUCAACACAGCGUGGCAAAGUGGCUGUGGUUAGACUGCCUCUCUGGAUUCCCCGUCACUCAGCAGGGCAUCUCUGAGAGAAAUGCC, for which the self-cleavage is 0.03.
With UACGUAGGUGGUUUUCCCCUGAUAGUGCUAAGGGGGCCUGGAAGUUUGGACUGGGCAGAGCUCAACACAGCGUGGCAAAGUGGCUGUGGUUAGACUGCCUCUCUGGAUUCCACGUCACUCAGCAGGGCAUCUCUGAGAGAAAUGCC the figure was 0.04; with UACGUAGGUGGUUUUCCCCUGAUAGUGCUAAGGGGGCCUGGAAGUUUGGACUGGGCAGAGCUCAACACAGCGUGGCAAAGUGGCUGUGGUUAGACUGCCUCUCUGGAUUCCUCGUCACCCAGCAGGGCAUCUCUGAGAGAAAUGCC, 0.03.
As for UACGUAGGUGGUUUUCCCCUGAUAGUGCUAAGGGGGCCUGGAAGUUUGGACUGGGCAGAGCUCAACACAGCGUGGCAAAGUGGCUGUGGCAAGACUGCCUCUCUGGAUUCCUCGUCACUCAGCAGGGCAUCUCUGAGAGAAAUACC, the self-cleavage came out at 0.88.
With UACGUAGGUGGUUUUCCCCUGAUAGUGCUAAGGGGGCCUGGAAGUUUGGACUGGGCAGAGCUCAACACAGCGUGGCAAAGUGGCUGUGGGUAGACUGCCUCCCUGGAUUCCUCGUCACUCAGCAGGGCAUCUCUGAGAGAAAUGCC the figure was 0.01.
UACGUAGGUGGUUUUCCCCUGAUAGUGCUAAGGGGGCCUGGAAGUUUGGACUGGGCAGAGCUCAACACAGCGUGGCAAAGUGGCUGUGGCAAGACUGCCUCUCUGGAUUCCUCGUCACUCAGCUGGGCAUCUCUGAGAGAAAUGCC: the self-cleavage was 0.48.
As for UACGUAGGUGGUUUUCCCCUGAUAGUGCUAAGGGGGCCUGGAAGUUUGGACUGGGCAGAGCUCAACACAGCGUGGCAAAGUGGCUGUGGCAAGACUGCCUCUCUGGAUUCCUCGUCACUCAGCAGGGCAUCUCUGGGAGAAAUGCC, the self-cleavage amounted to 0.36.
With UACGUAGGUGGUUUUCCCCUGAUAGUGCUAAGGGGGCCUGGAAGUUUGGACUGGGCAGAGCUCAACACAGCGUGGCAAAGUGGCUGUGGCAAGACUGCCUCUCUGGAUUCCUCGUCACUCAGCAGGGCAUCUCUGUGAGAAAUGCC the figure was 0.54; with UACGUAGGUGGUUUUCCCCUGAUAGUGCUAAGGGGGCCUGGAAGUUUGGACUGGGCAGAGCUCAACACAGCGUGGCAAAGUGGCUGUGGUUAGACUGCCUCUCUGGGUUCCUCGUCACUCAGCAGGGCAUCUCUGAGAGAAAUGCC, 0.03; with UACGUAGGUGGUUUUCCCCUGAUAGUGCUAAGGGGGCCUGGAAGUUUGGACUGGGCAGAGCUCAACACAGCGUGGCAAAGUGGCUGUGGUUAGACUGCCUCUCUGGAGUCCUCGUCACUCAGCAGGGCAUCUCUGAGAGAAAUGCC, 0.09.
Regarding UACGUAGGUGGUUUUCCCCUGAUAGUGCUAAGGGGGCCUGGAAGUUUGGACUGGGCAGAGCUCAACACAGCGUGGCAAAGUGGCUGUGGCAAGACUGCCUCUCUGGAUUCCUCGUCACUCAGCAGGGCAUCUCUGAGGGAAAUGCC, the self-cleavage is 0.84.
UACGUAGGUGGUUUUCCCCUGAUAGUGCUAAGGGGGCCUGGAAGUUUGGACUGGGCAGAGCUCAACACAGCGUGGCAAAGUGGCUGUGGUUAGUCUGCCUCUCUGGAUUCCUCGUCACUCAGCAGGGCAUCUCUGAGAGAAAUGCC: the self-cleavage is 0.04.
For the variant UACGUAGGUGGUUUUCCCCUGAUAGUGCUAAGGGGGCCUGGAAGUUUGGACUGGGCAGAGCUCAACACAGCGUGGCAAAGUGGCUGUGGCAAGACUGCCUCUCUGGAUUCCUCGUCACUCAGCAGAGCAUCUCUGAGAGAAAUGCC, the self-cleavage stood at 0.43.
With UACGUAGGUGGUUUUCCCCUGAUAGUGCUAAGGGGGCCUGGAAGUUUGGACUGGGCAGAGCUCAACACAGCGUGGCAAAGUGGCUGUGGCAUGACUGCCUCUCUGGAUUCCUCGUCACUCAGCAGGGCAUCUCUGAGAGAAAUGCC the figure was 1.33.
Regarding UACGUAGGUGGUUUUCCCCUGAUAGUGCUAAGGGGGCCUGGAAGUUUGGACUGGGCAGAGCUCAACACAGCGUGGCAAAGUGGCUGUGGCAGGACUGCCUCUCUGGAUUCCUCGUCACUCAGCAGGGCAUCUCUGAGAGAAAUGCC, the self-cleavage is 0.16.
Turning to UACGUAGGUGGUUUUCCCCUGAUAGUGCUAAGGGGGCCUGGAAGUUUGGACUGGGCAGAGCUCAACACAGCGUGGCAAAGUGGCUGUGGGUAGACUGCCUCUCUGGAUUCCUCGUCACUCAGCAGGGCGUCUCUGAGAGAAAUGCC, the self-cleavage worked out at 0.04.
UACGUAGGUGGUUUUCCCCUGAUAGUGCUAAGGGGGCCUGGAAGUUUGGACUGGGCAGAGCUCAACACAGCGUGGCAAAGUGGCUGUGGUUAGACUGCCUCUCUGGAUUCCUCGCCACUCAGCAGGGCAUCUCUGAGAGAAAUGCC: the self-cleavage worked out at 0.06.
To UACGUAGGUGGUUUUCCCCUGAUAGUGCUAAGGGGGCCUGGAAGUUUGGACUGGGCAGAGCUCAACACAGCGUGGCAAAGUGGCUGUGGCAAGACUGCCUCUCUGGAUUCCUCGUCACUCAGCAGGGCUUCUCUGAGAGAAAUGCC belongs 0.86.
To UACGUAGGUGGUUUUCCCCUGAUAGUGCUAAGGGGGCCUGGAAGUUUGGACUGGGCAGAGCUCAACACAGCGUGGCAAAGUGGCUGUGGAUAGACUGCCUCUCUGGAUUCCUCGUCCCUCAGCAGGGCAUCUCUGAGAGAAAUGCC belongs 0.05; to UACGUAGGUGGUUUUCCCCUGAUAGUGCUAAGGGGGCCUGGAAGUUUGGACUGGGCAGAGCUCAACACAGCGUGGCAAAGUGGCUGUGGUUAUACUGCCUCUCUGGAUUCCUCGUCACUCAGCAGGGCAUCUCUGAGAGAAAUGCC, 0.04.
In the case of UACGUAGGUGGUUUUCCCCUGAUAGUGCUAAGGGGGCCUGGAAGUUUGGACUGGGCAGAGCUCAACACAGCGUGGCAAAGUGGCUGUGGUUAGACUGCCUCUCUGGAUUCCUCGUCACUCAGCAGGGCAUCUCUGAGGGAAAUGCC, the self-cleavage worked out at 0.04.
With UACGUAGGUGGUUUUCCCCUGAUAGUGCUAAGGGGGCCUGGAAGUUUGGACUGGGCAGAGCUCAACACAGCGUGGCAAAGUGGCUGUGGCAAGACUGCCUCUCUGGAUUCCUCGUCACUCAGCAGGGCAUCUCUGAGAGGAAUGCC, the self-cleavage was determined as 0.45.
Take UACGUAGGUGGUUUUCCCCUGAUAGUGCUAAGGGGGCCUGGAAGUUUGGACUGGGCAGAGCUCAACACAGCGUGGCAAAGUGGCUGUGGUUAGACUGCCUCUCUGGAUUCCUCGUCACUCAGCAGGGCAUCUCGGAGAGAAAUGCC: the self-cleavage amounted to 0.04.
To UACGUAGGUGGUUUUCCCCUGAUAGUGCUAAGGGGGCCUGGAAGUUUGGACUGGGCAGAGCUCAACACAGCGUGGCAAAGUGGCUGUGGUUAGACUGCCUCUCUGGAUUCCUCGUCACUCAGCAGGGCAUCUCUGAGAGAAGUGCC belongs 0.03; to UACGUAGGUGGUUUUCCCCUGAUAGUGCUAAGGGGGCCUGGAAGUUUGGACUGGGCAGAGCUCAACACAGCGUGGCAAAGUGGCUGUGGAUAGACUGCGUCUCUGGAUUCCUCGUCACUCAGCAGGGCAUCUCUGAGAGAAAUGCC, 0.02; to UACGUAGGUGGUUUUCCCCUGAUAGUGCUAAGGGGGCCUGGAAGUUUGGACUGGGCAGAGCUCAACACAGCGUGGCAAAGUGGCUGUGGAUAGACUGCCUCUCUGGUUUCCUCGUCACUCAGCAGGGCAUCUCUGAGAGAAAUGCC, 0.03.
Consider UACGUAGGUGGUUUUCCCCUGAUAGUGCUAAGGGGGCCUGGAAGUUUGGACUGGGCAGAGCUCAACACAGCGUGGCAAAGUGGCUGUGGAUAGACUGCCUCUCUGGGUUCCUCGUCACUCAGCAGGGCAUCUCUGAGAGAAAUGCC, for which the self-cleavage is 0.04.
On to UACGUAGGUGGUUUUCCCCUGAUAGUGCUAAGGGGGCCUGGAAGUUUGGACUGGGCAGAGCUCAACACAGCGUGGCAAAGUGGCUGUGGUUAGACUGCCUCUCUGGAUUCCUCGUCACUCAGCAGGGCAUCUCUGAGAGAAACGCC, for which the self-cleavage was 0.
For UACGUAGGUGGUUUUCCCCUGAUAGUGCUAAGGGGGCCUGGAAGUUUGGACUGGGCAGAGCUCAACACAGCGUGGCAAAGUGGCUGUGGAUAGACCGCCUCUCUGGAUUCCUCGUCACUCAGCAGGGCAUCUCUGAGAGAAAUGCC, the self-cleavage was determined as 0.04.
Take UACGUAGGUGGUUUUCCCCUGAUAGUGCUAAGGGGGCCUGGAAGUUUGGACUGGGCAGAGCUCAACACAGCGUGGCAAAGUGGCUGUGGUUAGACUGCCACUCUGGAUUCCUCGUCACUCAGCAGGGCAUCUCUGAGAGAAAUGCC: the self-cleavage stood at 0.04.
Take UACGUAGGUGGUUUUCCCCUGAUAGUGCUAAGGGGGCCUGGAAGUUUGGACUGGGCAGAGCUCAACACAGCGUGGCAAAGUGGCUGUGGUUAGACUGCCUCUCUGGAUUCCUCGUCACUCAGCAGGGCACCUCUGAGAGAAAUGCC: the self-cleavage was determined as 0.04.
